Reference: patent publication US20130266568A1 (Hoffmann-La Roche, published 2013)
Where a chain is given by its changes, count along the chain named.

B1: Her3/MetSS_KHSS_PreSci (protease cleavage site = prescission cleavage site), not cleaved (restricted form) (bispecific antibody, human IgG1, kappa)
heavy 1: not shown
heavy 2: not shown
light: DIQMTQTTSSLSASLGDRVTISCRARQDISNYLNWYQRKPDGTVKLLIYYTSRLHSGVPSRFSGSGSGTDYSLTISNLEQEDIATYFCQQGNTFPWTFGGGTKLEIKRTVAAPSVFIFPPSDEQLKSGTASVVCLLNNFYPREAKVQWKVDNALQSGNSQESVTEQDSKDSTYSLSSTLTLSKADYEKHKVYACEVTHQGLSSPVTKSFNRGEC
notes: Trivalent: whole anti-Her3 IgG (knobs-into-holes) with one disulfide-stabilized anti-cMet Fv tethered to both CH3 C-termini; Constructs were designed with a leader peptide
B2: Her3/MetSS_KHSS_M3 (MMP 2 and 9 cleavage site - variant 3), not cleaved (bispecific antibody, human IgG1, kappa)
heavy 1: not shown
heavy 2: not shown
light: B1 light
notes: Trivalent anti-Her3 IgG with restricted anti-cMet dsFv
B3: Her3/MetSS_KHSS_M1 after protease cleavage (bispecific antibody)
heavy 1: not shown
heavy 2: not shown
chain: MLSQSGGGGSGGGGSDIQMTQSPSSLSASVGDRVTITCKSSQSLLYTSSQKNYLAWYQQKPGKAPKLLIYWASTRESGVPSRFSGSGSGTDFTLTISSLQPEDFATYYCQQYYAYPWTFGCGTKVEIKR
light: B1 light
notes: HC2 is cut in the connector; the VL fragment stays disulfide-linked to VH
B4: Her3/MetSS_KHSS_U (protease cleavage site = uPA cleavage site), not cleaved (bispecific antibody, human IgG1, kappa)
heavy 1: not shown
heavy 2: not shown
light: B1 light
notes: as for B2
B5: Her3/MetSS_KHSS_M3 after protease cleavage (bispecific antibody)
heavy 1: not shown
heavy 2: not shown
chain: B3 chain with M1I, L2A, S3G
light: B1 light
notes: as for B3
B6: Her3/MetSS_KHSS_M2 after protease cleavage (MMP-2 processed) (bispecific antibody)
heavy 1: not shown
heavy 2: not shown
chain: B3 chain with M1L, L2W, S3A
light: B1 light
notes: as for B3
B7: Her3/MetSS_KHSS_M1 (MMP 2 and 9 cleavage site - variant 1), not cleaved (bispecific antibody, human IgG1, kappa)
heavy 1: not shown
heavy 2: not shown
light: B1 light
notes: as for B2
B8: Her3/MetSS_KHSS_M2 (MMP 2 and 9 cleavage site - variant 2), not cleaved (bispecific antibody, human IgG1, kappa)
heavy 1: not shown
heavy 2: not shown
light: B1 light
notes: as for B2

Tests used:
[1] = biological target: T1, Her3 on Her3-expressing, cMet negative T47D cells / Her3-positive cancer cells (UniProt P21860 20-1342, limits assumed); test: FACS on live T47D cells (cMet-/Her3+); x axis fluorescence (log), y axis % of Max; antibody concentration not shown
T1 construct: whole, on cells
T1 sequence (P21860 20-1342 limits assumed, stated change not applied): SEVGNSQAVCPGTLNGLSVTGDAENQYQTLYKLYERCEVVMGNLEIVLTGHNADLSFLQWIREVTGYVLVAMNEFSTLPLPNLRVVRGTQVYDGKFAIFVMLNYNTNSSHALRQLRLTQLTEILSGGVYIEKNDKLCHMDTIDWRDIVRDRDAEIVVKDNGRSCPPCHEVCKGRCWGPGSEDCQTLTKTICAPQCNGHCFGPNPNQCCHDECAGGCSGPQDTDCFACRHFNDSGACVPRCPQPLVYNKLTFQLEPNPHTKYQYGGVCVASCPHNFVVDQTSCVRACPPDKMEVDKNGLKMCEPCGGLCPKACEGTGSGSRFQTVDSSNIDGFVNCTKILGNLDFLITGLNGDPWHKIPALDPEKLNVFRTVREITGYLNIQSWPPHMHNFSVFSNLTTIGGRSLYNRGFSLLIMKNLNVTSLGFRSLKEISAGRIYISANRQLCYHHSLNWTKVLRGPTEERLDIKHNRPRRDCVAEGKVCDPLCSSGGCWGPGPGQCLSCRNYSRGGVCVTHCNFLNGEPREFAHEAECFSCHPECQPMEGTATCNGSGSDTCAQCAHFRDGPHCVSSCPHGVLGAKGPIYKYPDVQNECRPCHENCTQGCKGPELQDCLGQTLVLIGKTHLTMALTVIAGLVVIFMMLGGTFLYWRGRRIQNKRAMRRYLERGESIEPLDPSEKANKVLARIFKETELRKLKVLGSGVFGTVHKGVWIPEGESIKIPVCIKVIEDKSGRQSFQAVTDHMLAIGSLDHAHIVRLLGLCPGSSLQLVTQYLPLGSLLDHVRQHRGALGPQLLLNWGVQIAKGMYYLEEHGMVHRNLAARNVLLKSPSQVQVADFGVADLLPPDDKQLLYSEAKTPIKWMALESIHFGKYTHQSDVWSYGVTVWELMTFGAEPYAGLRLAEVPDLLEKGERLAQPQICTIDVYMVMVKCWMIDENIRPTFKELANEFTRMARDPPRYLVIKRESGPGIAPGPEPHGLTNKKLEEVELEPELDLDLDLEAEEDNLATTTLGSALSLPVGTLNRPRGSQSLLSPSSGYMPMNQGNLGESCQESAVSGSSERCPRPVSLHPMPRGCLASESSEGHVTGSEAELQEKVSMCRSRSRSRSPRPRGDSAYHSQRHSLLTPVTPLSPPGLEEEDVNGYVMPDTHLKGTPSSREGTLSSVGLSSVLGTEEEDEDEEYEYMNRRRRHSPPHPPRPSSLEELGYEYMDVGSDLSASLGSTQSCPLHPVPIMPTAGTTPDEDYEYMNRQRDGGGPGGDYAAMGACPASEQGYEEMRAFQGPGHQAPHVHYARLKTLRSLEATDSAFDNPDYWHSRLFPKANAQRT

[2] = biological target: T2, cMet (antigen in the SPR measurements) (UniProt P08581 25-932, limits assumed); test: SPR
T2 sequence (P08581 25-932 limits assumed): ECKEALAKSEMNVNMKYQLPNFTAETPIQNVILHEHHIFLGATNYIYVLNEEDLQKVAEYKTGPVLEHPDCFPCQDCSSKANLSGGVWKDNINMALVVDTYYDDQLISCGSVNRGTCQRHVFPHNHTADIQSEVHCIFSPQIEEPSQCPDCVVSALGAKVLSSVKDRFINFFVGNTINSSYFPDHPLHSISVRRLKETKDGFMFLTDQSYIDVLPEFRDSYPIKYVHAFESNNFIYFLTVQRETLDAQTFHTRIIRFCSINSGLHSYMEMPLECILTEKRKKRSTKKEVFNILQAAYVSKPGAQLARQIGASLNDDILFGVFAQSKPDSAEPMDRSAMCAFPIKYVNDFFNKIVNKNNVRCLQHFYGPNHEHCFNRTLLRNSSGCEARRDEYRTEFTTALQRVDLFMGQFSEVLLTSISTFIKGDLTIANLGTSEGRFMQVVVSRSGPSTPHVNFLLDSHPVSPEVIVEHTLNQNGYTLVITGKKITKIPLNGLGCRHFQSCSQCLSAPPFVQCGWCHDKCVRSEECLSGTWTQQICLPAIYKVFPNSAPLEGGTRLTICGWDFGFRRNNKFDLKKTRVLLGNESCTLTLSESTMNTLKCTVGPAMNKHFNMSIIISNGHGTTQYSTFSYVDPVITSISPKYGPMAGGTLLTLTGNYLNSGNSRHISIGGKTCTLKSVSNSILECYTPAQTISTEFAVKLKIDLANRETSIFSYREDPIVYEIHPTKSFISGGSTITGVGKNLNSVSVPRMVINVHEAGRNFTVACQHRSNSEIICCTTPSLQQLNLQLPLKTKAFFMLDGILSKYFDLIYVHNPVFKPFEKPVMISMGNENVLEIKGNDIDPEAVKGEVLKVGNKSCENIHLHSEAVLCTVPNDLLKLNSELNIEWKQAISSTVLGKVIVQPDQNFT

[3] = biological target: T2, cMet (antigen in the SPR measurements); test: SPR, KD uncleaved against KD after protease cleavage
[4] = biological target: T2, cMet (antigen in the SPR measurements); test: SPR, cleaved against restricted form
[5] = biological target: T2, cMet (antigen in the SPR measurements); test: SPR; after protease (MMP2/9) cleavage; dsFv unleashed
[6] = biological target: HER3 (antigen in the SPR measurements) (UniProt P21860 20-643, limits assumed); test: SPR
Sequence of HER3 (antigen in the SPR measurements) (P21860 20-643 limits assumed): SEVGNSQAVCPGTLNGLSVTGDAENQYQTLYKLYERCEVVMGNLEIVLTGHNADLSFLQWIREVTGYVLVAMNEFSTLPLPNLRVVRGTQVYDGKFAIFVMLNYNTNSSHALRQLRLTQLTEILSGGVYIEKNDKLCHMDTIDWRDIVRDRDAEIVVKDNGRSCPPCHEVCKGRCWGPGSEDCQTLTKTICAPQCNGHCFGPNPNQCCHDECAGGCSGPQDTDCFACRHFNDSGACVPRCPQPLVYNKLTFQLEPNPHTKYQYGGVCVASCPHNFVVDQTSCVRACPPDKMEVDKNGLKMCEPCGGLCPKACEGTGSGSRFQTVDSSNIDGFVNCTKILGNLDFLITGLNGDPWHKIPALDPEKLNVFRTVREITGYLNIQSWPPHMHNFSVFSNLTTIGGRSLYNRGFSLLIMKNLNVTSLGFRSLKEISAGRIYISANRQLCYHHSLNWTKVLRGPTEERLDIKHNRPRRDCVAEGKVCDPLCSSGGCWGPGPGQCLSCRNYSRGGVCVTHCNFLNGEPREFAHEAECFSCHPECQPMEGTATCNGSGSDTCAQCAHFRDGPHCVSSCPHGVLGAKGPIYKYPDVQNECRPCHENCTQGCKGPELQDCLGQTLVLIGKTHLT

[7] = biological target: T2, cMet (antigen in the SPR measurements); test: SPR; not cleaved; dsFv sterically restricted

Binder | binding result [1] | Kd [2] [nM] | koff [2] [s⁻¹] | kon [2] [M⁻¹ s⁻¹] | reduced binding affinity as compared to after the protease cleavage [3] [times] | fold improvement of affinity by MMP processing [4] [fold] | Kd [5] [nM] | Kd [6] [nM] | koff [6] [s⁻¹] | kon [6] [M⁻¹ s⁻¹] | Kd [7] [nM]
B1 | binds |  |  |  |  |  |  |  |  |  | 
B2 |  | 88.6 | 0.000263 | 2970 | 17 |  |  |  |  |  | 
B3 |  |  | 0.00015 | 21200 |  | > 5 | 7.08 |  |  |  | 
B4 |  | 20 | 0.000193 | 9670 | 6 |  |  | 2.34 | 0.000372 | 159000 | 
B5 |  | 5.2 | 0.000105 | 20100 |  | > 5 |  |  |  |  | 
B6 |  | 7.14 | 0.000141 | 19700 |  | > 5 |  | 1.85 | 0.000327 | 177000 | 
B7 |  |  | 0.000374 | 151 | 350 |  |  |  |  |  | 2480
B8 |  | 114 | 0.000417 | 3650 | 16 |  |  | 1.92 | 0.000324 | 169000 | 
